Square brackets hold non-standard residues; d marks the D form. Ends that are not written are not given here. Aib = CC(C)(N)C(=O)O
Target: human GLP-1 receptor (human, UniProt P43220 24-463)
Assay: cell-based or functional assay

For H[Aib]QGTFTSDLSKQLDEQRA[(S)MeLys]DFIEWLIAGGPSSGAPPPS-NH2 [SEQ ID NO: 14], which “EC50 hGLP-1R (cAMP formation, HTRF, HEK-293 cells)” value is on record?
Its value is 1 pM.
